The results in this text go back to patent publication US9120862.

The target in test [1] is PIVKA-II antigen (Protein Induced by Vitamin K Absence II; decarboxylated prothrombin) (human) (UniProt P00734). The test is described as follows: … sandwich chemiluminescent immunoassay, 3C10 microparticles capture, conjugate detects; calibrator C, 100 mAU/mL PIVKA; mean of 5.
Test [2] has the same target. Nature of the test: … sandwich chemiluminescent immunoassay, 3C10 microparticles capture, conjugate detects; calibrator A, 0 mAU/mL PIVKA (blank); mean of 5.
The target is the same in test [3]. Nature of the test: … sandwich chemiluminescent immunoassay, 3C10 microparticles capture, conjugate detects; calibrator F, 30000 mAU/mL PIVKA; mean of 5.
The target is the same in test [4]. Nature of the test: … sandwich chemiluminescent immunoassay, 3C10 microparticles capture, conjugate detects; calibrator D, 750 mAU/mL PIVKA; mean of 5.
Test [5] shares this target. Nature of the test: … sandwich chemiluminescent immunoassay, 3C10 microparticles capture, conjugate detects; calibrator B, 20 mAU/mL PIVKA; mean of 5.
Test [6] shares this target. The test is described as follows: … sandwich chemiluminescent immunoassay, 3C10 microparticles capture, conjugate detects; calibrator E, 7500 mAU/mL PIVKA; mean of 5.

As for “control conjugate that reacts to human prothrombin (Abbott Japan, Tokyo, Japan) (antibody)”, the RLU worked out at 2600 RLU in test [1]; 190 RLU in test [2]; 871000 RLU in test [3]; 19000 RLU in test [4]; 683 RLU in test [5]; 204000 RLU in test [6].
